Test results as given in PMC1847943 (Molecular Systems Biology, 2007).

Target: the molecule itself
Test: native gel or EMSA

Protein	stoichiometry N
KaiB (natural protein, Synechococcus elongatus PCC 7942, UniProt Q79PF5 1-102, looked up) MSPRKTYILKLYVAGNTPNSVRALKTLKNILEVEFQGVYALKVIDVLKNPQLAEEDKILATPTLAKVLPLPVRRIIGDLSDREKVLIGLDLLYGELQDSDDF	4
KaiC (natural protein, Synechococcus elongatus PCC 7942, UniProt Q79PF4 1-519, looked up, phosphorylation level changes over the incubation with KaiA, KaiB and ATP (autophosphorylation)) MTSAEMTSPNNNSEHQAIAKMRTMIEGFDDISHGGLPIGRSTLVSGTSGTGKTLFSIQFLYNGIIEFDEPGVFVTFEETPQDIIKNARSFGWDLAKLVDEGKLFILDASPDPEGQEVVGGFDLSALIERINYAIQKYRARRVSIDSVTSVFQQYDASSVVRRELFRLVARLKQIGATTVMTTERIEEYGPIARYGVEEFVSDNVVILRNVLEGERRRRTLEILKLRGTSHMKGEYPFTITDHGINIFPLGAMRLTQRSSNVRVSSGVVRLDEMCGGGFFKDSIILATGATGTGKTLLVSRFVENACANKERAILFAYEESRAQLLRNAYSWGMDFEEMERQNLLKIVCAYPESAGLEDHLQIIKSEINDFKPARIAIDSLSALARGVSNNAFRQFVIGVTGYAKQEEITGLFTNTSDQFMGAHSITDSHISTITDTIILLQYVEIRGEMSRAINVFKMRGSWHDKAIREFMISDKGPDIKDSFRNFERIISGSPTRITVDEKSELSRIVRGVQEKGPES	6
KaiA (natural protein, Synechococcus elongatus PCC 7942, UniProt Q79PF6 1-284, looked up) MLSQIAICIWVESTAILQDCQRALSADRYQLQVCESGEMLLEYAQTHRDQIDCLILVAANPSFRAVVQQLCFEGVVVPAIVVGDRDSEDPDEPAKEQLYHSAELHLGIHQLEQLPYQVDAALAEFLRLAPVETMADHIMLMGANHDPELSSQQRDLAQRLQERLGYLGVYYKRDPDRFLRNLPAYESQKLHQAMQTSYREIVLSYFSPNSNLNQSIDNFVNMAFFADVPVTKVVEIHMELMDEFAKKLRVEGRSEDILLDYRLTLIDVIAHLCEMYRRSIPRET	2
